Experimental data as given in article PMC9482650, “Quantitative fragmentomics allow affinity mapping of interactomes” (Nature Communications, 2022).

Columns and labels:
Test in all cases: holdup assay
Design in all cases: key: below the threshold = too weak to quantify, mostly under pKd 3.1 to 4
TIAM2, Q8IVF5 = molecular target: T1, TIAM2, Q8IVF5
T1 sequence (Q8IVF5 885-986, limits assumed, looked up): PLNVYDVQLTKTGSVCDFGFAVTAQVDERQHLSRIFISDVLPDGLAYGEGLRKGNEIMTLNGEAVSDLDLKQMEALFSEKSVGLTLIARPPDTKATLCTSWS

RAPGEF6, Q8TEU7 = molecular target: T2, RAPGEF6, Q8TEU7
T2 sequence (Q8TEU7 525-625, limits assumed, looked up): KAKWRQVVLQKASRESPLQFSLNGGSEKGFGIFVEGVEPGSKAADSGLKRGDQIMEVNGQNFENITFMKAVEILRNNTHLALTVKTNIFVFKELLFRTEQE

Inadl_2, Q8NI35 = molecular target: Inadl_2, Q8NI35
PDZRN4_1, Q6ZMN7 = molecular target: PDZRN4_1, Q6ZMN7
DLG3_3, Q92796 = molecular target: T3, DLG3_3, Q92796
T3 sequence (Q92796 374-475, limits assumed, looked up): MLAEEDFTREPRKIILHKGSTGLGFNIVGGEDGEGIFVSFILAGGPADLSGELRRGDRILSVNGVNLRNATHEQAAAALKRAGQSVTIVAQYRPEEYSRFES

DLG3_2, Q92796 = molecular target: T4, DLG3_2, Q92796
T4 sequence (Q92796 221-321, limits assumed, looked up): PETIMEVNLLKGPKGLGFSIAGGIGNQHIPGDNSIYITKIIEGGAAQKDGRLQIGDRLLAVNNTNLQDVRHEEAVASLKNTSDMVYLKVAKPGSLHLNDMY

NHERF3_3, Q5T2W1 = molecular target: T5, NHERF3_3, Q5T2W1
T5 sequence (Q5T2W1 238-333, limits assumed, looked up): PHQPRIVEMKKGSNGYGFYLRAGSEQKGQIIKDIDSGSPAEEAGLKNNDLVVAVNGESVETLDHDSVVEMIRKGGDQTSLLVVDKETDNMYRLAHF

Inadl_4, Q8NI35 = molecular target: Inadl_4, Q8NI35
MAGI2_3, Q86UL8 = molecular target: MAGI2_3, Q86UL8
PICK1, Q9NRD5 = molecular target: PICK1, Q9NRD5
AHNAK1, Q09666 = molecular target: AHNAK1, Q09666
RHPN1, Q8TCX5 = molecular target: T6, RHPN1, Q8TCX5
T6 sequence (Q8TCX5 508-602, limits assumed, looked up): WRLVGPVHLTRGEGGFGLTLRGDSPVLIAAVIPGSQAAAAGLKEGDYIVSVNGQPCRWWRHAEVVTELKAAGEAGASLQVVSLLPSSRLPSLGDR

LNX2_3, Q8N448 = molecular target: T7, LNX2_3, Q8N448
T7 sequence (Q8N448 463-564, limits assumed, looked up): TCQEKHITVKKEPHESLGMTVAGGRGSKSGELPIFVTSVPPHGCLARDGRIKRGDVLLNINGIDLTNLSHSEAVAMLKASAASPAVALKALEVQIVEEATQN

GRIP1_3, Q9Y3R0 = molecular target: T8, GRIP1_3, Q9Y3R0
T8 sequence (Q9Y3R0 247-346, limits assumed, looked up): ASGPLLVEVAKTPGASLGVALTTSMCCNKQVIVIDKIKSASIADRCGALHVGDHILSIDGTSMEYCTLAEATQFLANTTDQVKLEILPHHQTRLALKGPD

SCRIB_2, Q14160 = molecular target: SCRIB_2, Q14160
DLG1_1, Q12959 = molecular target: DLG1_1, Q12959
Inadl_10, Q8NI35 = molecular target: Inadl_10, Q8NI35
LDB3, O75112 = molecular target: LDB3, O75112
DLG1_3, Q12959 = molecular target: DLG1_3, Q12959
LRRC7, Q96NW7 = molecular target: T9, LRRC7, Q96NW7
T9 sequence (Q96NW7 1440-1537, limits assumed, looked up): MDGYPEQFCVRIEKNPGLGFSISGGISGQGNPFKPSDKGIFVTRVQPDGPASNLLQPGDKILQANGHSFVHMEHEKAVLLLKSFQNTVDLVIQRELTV

SCRIB_1, Q14160 = molecular target: SCRIB_1, Q14160
GRID2IP_1, A4D2P6 = molecular target: GRID2IP_1, A4D2P6
LNX1_1, Q8TBB1 = molecular target: LNX1_1, Q8TBB1
GOPC, Q9HD26 = molecular target: GOPC, Q9HD26
DFNB31_2, Q9P202 = molecular target: T10, DFNB31_2, Q9P202
T10 sequence (Q9P202 274-371, limits assumed, looked up): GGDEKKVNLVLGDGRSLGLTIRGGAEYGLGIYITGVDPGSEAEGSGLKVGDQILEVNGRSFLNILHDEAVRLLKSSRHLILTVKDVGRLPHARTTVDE

CASK, O14936 = molecular target: CASK, O14936
MPP2, Q14168 = molecular target: T11, MPP2, Q14168
T11 sequence (Q14168 180-250, limits assumed, looked up): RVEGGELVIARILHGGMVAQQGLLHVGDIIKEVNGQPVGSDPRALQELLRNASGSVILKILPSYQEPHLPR

[1] = plain residues with an end cap or a label only (N-terminal biotin on a linker: ado-ado, ttds)
[2] = plain residues with an end cap or a label only (N-terminal biotin on a linker: ado-ado)
[3] = plain residues with an end cap or a label only (N-terminal biotin on a linker: ahx)
[4] = plain residues with an end cap or a label only (N-terminal biotin on a linker: ttds)

Sequence of Inadl_10, Q8NI35 (Q8NI35 1673-1763): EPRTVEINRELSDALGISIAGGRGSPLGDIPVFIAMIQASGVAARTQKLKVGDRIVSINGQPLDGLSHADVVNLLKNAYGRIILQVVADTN
Sequence of SCRIB_1, Q14160 (Q14160 718-814): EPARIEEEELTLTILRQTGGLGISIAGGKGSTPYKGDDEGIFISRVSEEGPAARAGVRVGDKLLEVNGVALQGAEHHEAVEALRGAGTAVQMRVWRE
Sequence of CASK, O14936 (O14936 487-570): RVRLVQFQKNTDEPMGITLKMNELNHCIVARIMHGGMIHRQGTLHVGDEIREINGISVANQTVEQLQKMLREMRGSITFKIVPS
Sequence of Inadl_2, Q8NI35 (Q8NI35 238-335): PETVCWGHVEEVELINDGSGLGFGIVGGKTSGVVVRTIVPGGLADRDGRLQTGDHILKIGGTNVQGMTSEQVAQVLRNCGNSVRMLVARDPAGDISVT
Sequence of SCRIB_2, Q14160 (Q14160 857-960): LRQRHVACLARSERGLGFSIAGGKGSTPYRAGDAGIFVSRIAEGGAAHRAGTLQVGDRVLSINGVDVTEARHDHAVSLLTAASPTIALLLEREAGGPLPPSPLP
Sequence of Inadl_4, Q8NI35 (Q8NI35 547-651): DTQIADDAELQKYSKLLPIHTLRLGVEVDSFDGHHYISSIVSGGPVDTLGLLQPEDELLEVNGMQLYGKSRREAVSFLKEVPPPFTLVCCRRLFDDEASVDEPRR
Sequence of PICK1, Q9NRD5 (Q9NRD5 17-115): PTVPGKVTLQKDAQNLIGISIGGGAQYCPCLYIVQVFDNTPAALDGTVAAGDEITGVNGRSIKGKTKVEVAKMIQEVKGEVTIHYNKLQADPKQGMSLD
Sequence of PDZRN4_1, Q6ZMN7 (Q6ZMN7 213-318): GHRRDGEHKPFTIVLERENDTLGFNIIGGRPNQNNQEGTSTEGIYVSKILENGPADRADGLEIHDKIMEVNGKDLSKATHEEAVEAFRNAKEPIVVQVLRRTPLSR
Sequence of GRID2IP_1, A4D2P6 (A4D2P6 1-87): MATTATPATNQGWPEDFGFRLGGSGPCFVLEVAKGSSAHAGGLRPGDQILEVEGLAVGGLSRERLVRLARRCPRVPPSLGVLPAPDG
Sequence of LDB3, O75112 (O75112 1-94): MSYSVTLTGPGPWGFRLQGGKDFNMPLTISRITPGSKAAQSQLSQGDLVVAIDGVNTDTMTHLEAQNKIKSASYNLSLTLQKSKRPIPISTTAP
Sequence of LNX1_1, Q8TBB1 (Q8TBB1 261-371): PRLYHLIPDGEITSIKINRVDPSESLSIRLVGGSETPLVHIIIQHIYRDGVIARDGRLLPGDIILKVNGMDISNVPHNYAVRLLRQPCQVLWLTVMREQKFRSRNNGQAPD
Sequence of AHNAK1, Q09666 (Q09666 4-100): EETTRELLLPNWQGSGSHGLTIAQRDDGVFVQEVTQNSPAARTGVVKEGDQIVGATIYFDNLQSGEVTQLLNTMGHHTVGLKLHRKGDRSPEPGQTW
Sequence of MAGI2_3, Q86UL8 (Q86UL8 600-682): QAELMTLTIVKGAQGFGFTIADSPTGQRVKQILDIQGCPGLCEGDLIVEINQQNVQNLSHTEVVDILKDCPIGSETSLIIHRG

## SNAKAVETDV [KCNA4, P22459]
TIAM2, Q8IVF5; [1]
  pKd: below the threshold
RAPGEF6, Q8TEU7; [1]
  pKd: below the threshold
Inadl_2, Q8NI35; [1]
  pKd: below the threshold
PDZRN4_1, Q6ZMN7; [1]
  pKd: below the threshold
DLG3_3, Q92796; [1]
  pKd: below the threshold
DLG3_2, Q92796; [1]
  pKd: 5.23
NHERF3_3, Q5T2W1; [1]
  pKd: below the threshold
Inadl_4, Q8NI35; [1]
  pKd: below the threshold
MAGI2_3, Q86UL8; [1]
  pKd: 3.54
PICK1, Q9NRD5; [1]
  pKd: below the threshold
AHNAK1, Q09666; [1]
  pKd: below the threshold
RHPN1, Q8TCX5; [1]
  pKd: 4.15
LNX2_3, Q8N448; [1]
  pKd: below the threshold
GRIP1_3, Q9Y3R0; [1]
  pKd: below the threshold
SCRIB_2, Q14160; [1]
  pKd: 4.67
DLG1_1, Q12959; [1]
  pKd: 4.72
Inadl_10, Q8NI35; [1]
  pKd: below the threshold
LDB3, O75112; [1]
  pKd: below the threshold
DLG1_3, Q12959; [1]
  pKd: below the threshold
LRRC7, Q96NW7; [1]
  pKd: 3.64
SCRIB_1, Q14160; [1]
  pKd: below the threshold
GRID2IP_1, A4D2P6; [1]
  pKd: below the threshold
LNX1_1, Q8TBB1; [1]
  pKd: 3.77
GOPC, Q9HD26; [1]
  pKd: below the threshold
DFNB31_2, Q9P202; [1]
  pKd: below the threshold
CASK, O14936; [1]
  pKd: below the threshold
MPP2, Q14168; [1]
  pKd: below the threshold

## ELKAEDEVQI [DCHS2, Q6V1P9]
TIAM2, Q8IVF5; [2]
  pKd: 3.52
RAPGEF6, Q8TEU7; [2]
  pKd: below the threshold
Inadl_2, Q8NI35; [2]
  pKd: below the threshold
PDZRN4_1, Q6ZMN7; [2]
  pKd: below the threshold
DLG3_3, Q92796; [2]
  pKd: below the threshold
DLG3_2, Q92796; [2]
  pKd: 3.59
NHERF3_3, Q5T2W1; [2]
  pKd: below the threshold
Inadl_4, Q8NI35; [2]
  pKd: below the threshold
MAGI2_3, Q86UL8; [2]
  pKd: below the threshold
PICK1, Q9NRD5; [2]
  pKd: 4.13
AHNAK1, Q09666; [2]
  pKd: below the threshold
RHPN1, Q8TCX5; [2]
  pKd: below the threshold
LNX2_3, Q8N448; [2]
  pKd: below the threshold
GRIP1_3, Q9Y3R0; [2]
  pKd: below the threshold
SCRIB_2, Q14160; [2]
  pKd: below the threshold
DLG1_1, Q12959; [2]
  pKd: below the threshold
Inadl_10, Q8NI35; [2]
  pKd: below the threshold
LDB3, O75112; [2]
  pKd: below the threshold
DLG1_3, Q12959; [2]
  pKd: below the threshold
LRRC7, Q96NW7; [2]
  pKd: below the threshold
SCRIB_1, Q14160; [2]
  pKd: below the threshold
GRID2IP_1, A4D2P6; [2]
  pKd: below the threshold
LNX1_1, Q8TBB1; [2]
  pKd: below the threshold
GOPC, Q9HD26; [2]
  pKd: below the threshold
DFNB31_2, Q9P202; [2]
  pKd: below the threshold
CASK, O14936; [2]
  pKd: below the threshold
MPP2, Q14168; [2]
  pKd: below the threshold

## SKKNELFSNL [NHERF1, O14745]
TIAM2, Q8IVF5; [3]
  pKd: below the threshold
RAPGEF6, Q8TEU7; [3]
  pKd: below the threshold
Inadl_2, Q8NI35; [3]
  pKd: below the threshold
PDZRN4_1, Q6ZMN7; [3]
  pKd: below the threshold
DLG3_3, Q92796; [3]
  pKd: below the threshold
DLG3_2, Q92796; [3]
  pKd: below the threshold
NHERF3_3, Q5T2W1; [3]
  pKd: below the threshold
Inadl_4, Q8NI35; [3]
  pKd: below the threshold
MAGI2_3, Q86UL8; [3]
  pKd: below the threshold
PICK1, Q9NRD5; [3]
  pKd: below the threshold
AHNAK1, Q09666; [3]
  pKd: below the threshold
RHPN1, Q8TCX5; [3]
  pKd: 3.76
LNX2_3, Q8N448; [3]
  pKd: below the threshold
GRIP1_3, Q9Y3R0; [3]
  pKd: below the threshold
SCRIB_2, Q14160; [3]
  pKd: below the threshold
DLG1_1, Q12959; [3]
  pKd: below the threshold
Inadl_10, Q8NI35; [3]
  pKd: below the threshold
LDB3, O75112; [3]
  pKd: below the threshold
DLG1_3, Q12959; [3]
  pKd: below the threshold
LRRC7, Q96NW7; [3]
  pKd: below the threshold
SCRIB_1, Q14160; [3]
  pKd: below the threshold
GRID2IP_1, A4D2P6; [3]
  pKd: below the threshold
LNX1_1, Q8TBB1; [3]
  pKd: below the threshold
GOPC, Q9HD26; [3]
  pKd: below the threshold
DFNB31_2, Q9P202; [3]
  pKd: below the threshold
CASK, O14936; [3]
  pKd: below the threshold
MPP2, Q14168; [3]
  pKd: below the threshold

## PPRQRSETQV [HPV82-E6, Q9IR59]
TIAM2, Q8IVF5; [4]
  pKd: below the threshold
RAPGEF6, Q8TEU7; [4]
  pKd: below the threshold
Inadl_2, Q8NI35; [4]
  pKd: below the threshold
PDZRN4_1, Q6ZMN7; [4]
  pKd: 3.83
DLG3_3, Q92796; [4]
  pKd: 4.63
DLG3_2, Q92796; [4]
  pKd: 4.98
NHERF3_3, Q5T2W1; [4]
  pKd: below the threshold
Inadl_4, Q8NI35; [4]
  pKd: below the threshold
MAGI2_3, Q86UL8; [4]
  pKd: 3.73
PICK1, Q9NRD5; [4]
  pKd: below the threshold
AHNAK1, Q09666; [4]
  pKd: below the threshold
RHPN1, Q8TCX5; [4]
  pKd: 3.72
LNX2_3, Q8N448; [4]
  pKd: below the threshold
GRIP1_3, Q9Y3R0; [4]
  pKd: below the threshold
SCRIB_2, Q14160; [4]
  pKd: 4.26
DLG1_1, Q12959; [4]
  pKd: 4.75
Inadl_10, Q8NI35; [4]
  pKd: below the threshold
LDB3, O75112; [4]
  pKd: below the threshold
DLG1_3, Q12959; [4]
  pKd: 3.99
LRRC7, Q96NW7; [4]
  pKd: below the threshold
SCRIB_1, Q14160; [4]
  pKd: 4.12
GRID2IP_1, A4D2P6; [4]
  pKd: below the threshold
LNX1_1, Q8TBB1; [4]
  pKd: below the threshold
GOPC, Q9HD26; [4]
  pKd: 3.63
DFNB31_2, Q9P202; [4]
  pKd: below the threshold
CASK, O14936; [4]
  pKd: below the threshold
MPP2, Q14168; [4]
  pKd: below the threshold

## SSIDLWETAL [SLC15A5, A6NIM6]
TIAM2, Q8IVF5; [4]
  pKd: below the threshold
RAPGEF6, Q8TEU7; [4]
  pKd: below the threshold
Inadl_2, Q8NI35; [4]
  pKd: below the threshold
PDZRN4_1, Q6ZMN7; [4]
  pKd: 5.58
DLG3_3, Q92796; [4]
  pKd: 3.8
DLG3_2, Q92796; [4]
  pKd: 4.28
NHERF3_3, Q5T2W1; [4]
  pKd: below the threshold
Inadl_4, Q8NI35; [4]
  pKd: below the threshold
MAGI2_3, Q86UL8; [4]
  pKd: below the threshold
PICK1, Q9NRD5; [4]
  pKd: below the threshold
AHNAK1, Q09666; [4]
  pKd: below the threshold
RHPN1, Q8TCX5; [4]
  pKd: 5
LNX2_3, Q8N448; [4]
  pKd: below the threshold
GRIP1_3, Q9Y3R0; [4]
  pKd: below the threshold
SCRIB_2, Q14160; [4]
  pKd: 5.14
DLG1_1, Q12959; [4]
  pKd: 4.43
Inadl_10, Q8NI35; [4]
  pKd: 4.17
LDB3, O75112; [4]
  pKd: 3.92
DLG1_3, Q12959; [4]
  pKd: 4.22
LRRC7, Q96NW7; [4]
  pKd: 4.47
SCRIB_1, Q14160; [4]
  pKd: 5.76
GRID2IP_1, A4D2P6; [4]
  pKd: below the threshold
LNX1_1, Q8TBB1; [4]
  pKd: 3.97
GOPC, Q9HD26; [4]
  pKd: 4.85
DFNB31_2, Q9P202; [4]
  pKd: below the threshold
CASK, O14936; [4]
  pKd: below the threshold
MPP2, Q14168; [4]
  pKd: below the threshold
